# Laboratory results taken from paper PMC314469, “Protein Interaction Networks by Proteome Peptide Scanning” (PLoS Biology, 2004).
# T1: amphyphisin SH3 (AMPH_HUMAN), P49418
# T1 chain: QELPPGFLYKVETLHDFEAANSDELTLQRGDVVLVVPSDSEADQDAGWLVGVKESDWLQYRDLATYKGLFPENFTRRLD
# Molecular target: T1, amphyphisin SH3 (AMPH_HUMAN), P49418
# Test: SPOT array
row,"normalised SPOT signal, Boehringer light units (BLU); mean over the file's lines of this peptide",Binder
1,43.9,DPEVLKRPEYFGKF [Q9NZN6 122-135]
2,16.1,DPEDLKRPDPASLK [Q8WTY4 218-231]
3,16.7,DMQSFRRPSAASID [Q96QH2 513-526]
4,24.5,AEEQLRRPRIVHVG [Q9UBR1 62-75]
5,1930,DNIPLSRPKRNLSR [Q9Y4P9 18-31]
6,20,DPNAPKRPPSGFFL [O15347 88-101]
7,73.4,DPPGPPRPPKEPGP [Q9NR59 1285-1299]
8,3530,DKLSPDRPIRDTRH [Q9ULT9 130-143]
9,31.7,DNGGFKRPLAPSGR [Q9Y5U2 118-131]
10,40.1,DMAIPSKPPAASPE [Q8TEH3 531-545]
11,27.3,DPNTFKRPQTPPKI [Q9Y4E3 337-350]
12,3780,DKKSPTRPKRQAKP [Q9P2W5 3-16]
13,33.3,DLPGPRRPAAAAAM [Q9NQ62 12-25]
14,31.5,DLSGLKRPSSSAST [Q9Y338 401-414]
15,41.9,DNLKLFRPKKLLPK [Q9BQL6 374-387]
16,50.3,AEGPPKRPGGSSPL [P48634 1665-1678]
17,45.5,DPNFPNKPPLTFDI [Q9H314 810-824]
18,325,DRPIIDRPIRGRGG [Q9Y367 154-167]
19,11.5,DSPLPRRPAFSGTS [Q9HBB0 94-107]
20,20.2,DSGQPRRPGQSPLS [O75111 1249-1262]
21,149,DPSGLPRPQKIPIS [Q9H591 280-293]

row,"normalised SPOT signal, Boehringer light units (BLU); mean over the file's lines of this peptide",Binder
1,183,DPRRPKRPRTILTT [O60663 192-205]
2,574,DRPKPPRPPTGRPS [P51512 320-334]
3,43.4,DQIPPNKPPWFDQP [O00302 379-393]
4,41.4,DPNAPKRPMSAYML [Q08945 543-556]
5,59.5,DPRTPRRPRSARAG [Q9H901 24-37]
6,39.5,DPNAPKRPPSAFFL [P09429 90-103]
7,20.6,DPNPPKRPLIFDTN [O14802 1370-1383]
8,108,DPQAPRRPPSSFLL [Q8WW32 89-102]
9,360,DRWDPTRPPRATDT [O95180 738-751]
10,57.4,AEILPRRPPTPEAQ [Q9BTK6 128-142]
11,129,DRFPLKRPRYEDSD [O94913 808-821]
12,25.9,DTKALRRPKSAELH [P07949 469-482]
13,17.3,AEERPRRPSQEQSA [Q9Y4D0 963-976]
14,40.7,DPNAPKRPLSGFFL [Q9UJ13 78-91]
15,64.8,DLHPPPRPPSPTEI [O43154 1259-1273]
16,45,DPSPPRRPQHNSSG [Q96LS7 199-212]
17,58.3,DKNIPMKPPTPLLN [AAM33634 99-113]
18,112,DTALLPRPERRSSL [Q9Y2E3 518-531]
19,20.5,DLLSPRRPPDDPWA [BAC03422 263-277]
20,30.7,DSPSFSRPSKYSPG [O14905 71-84]
21,32,DPNAPKRPPLAFFL [P23497 765-778]

# Molecular target: endophilin SH3 (SH3G2_HUMAN), Q99962
# Test: SPOT array
row,"normalised SPOT signal, Boehringer light units (BLU); mean over the file's lines of this peptide",Binder
1,108,DPEVLKRPEYFGKF [Q9NZN6 122-135]
2,82.4,DPEDLKRPDPASLK [Q8WTY4 218-231]
3,56,DMQSFRRPSAASID [Q96QH2 513-526]
4,35.1,AEEQLRRPRIVHVG [Q9UBR1 62-75]
5,138,DNIPLSRPKRNLSR [Q9Y4P9 18-31]
6,5320,DPNAPKRPPSGFFL [O15347 88-101]
7,468,DPPGPPRPPKEPGP [Q9NR59 1285-1299]
8,794,DKLSPDRPIRDTRH [Q9ULT9 130-143]
9,98.6,DNGGFKRPLAPSGR [Q9Y5U2 118-131]
10,80,DMAIPSKPPAASPE [Q8TEH3 531-545]
11,39.4,DPNTFKRPQTPPKI [Q9Y4E3 337-350]
12,500,DKKSPTRPKRQAKP [Q9P2W5 3-16]
13,66,DLPGPRRPAAAAAM [Q9NQ62 12-25]
14,27.9,DLSGLKRPSSSAST [Q9Y338 401-414]
15,71.6,DNLKLFRPKKLLPK [Q9BQL6 374-387]
16,291,AEGPPKRPGGSSPL [P48634 1665-1678]
17,47.9,DPNFPNKPPLTFDI [Q9H314 810-824]
18,192,DRPIIDRPIRGRGG [Q9Y367 154-167]
19,971,DSPLPRRPAFSGTS [Q9HBB0 94-107]
20,80.5,DSGQPRRPGQSPLS [O75111 1249-1262]
21,112,DPSGLPRPQKIPIS [Q9H591 280-293]

row,"normalised SPOT signal, Boehringer light units (BLU); mean over the file's lines of this peptide",Binder
1,948,DPRRPKRPRTILTT [O60663 192-205]
2,7650,DRPKPPRPPTGRPS [P51512 320-334]
3,46.9,DQIPPNKPPWFDQP [O00302 379-393]
4,82.6,DPNAPKRPMSAYML [Q08945 543-556]
5,203,DPRTPRRPRSARAG [Q9H901 24-37]
6,3610,DPNAPKRPPSAFFL [P09429 90-103]
7,33.1,DPNPPKRPLIFDTN [O14802 1370-1383]
8,1200,DPQAPRRPPSSFLL [Q8WW32 89-102]
9,62.2,DRWDPTRPPRATDT [O95180 738-751]
10,32.7,AEILPRRPPTPEAQ [Q9BTK6 128-142]
11,144,DRFPLKRPRYEDSD [O94913 808-821]
12,63,DTKALRRPKSAELH [P07949 469-482]
13,882,AEERPRRPSQEQSA [Q9Y4D0 963-976]
14,1710,DPNAPKRPLSGFFL [Q9UJ13 78-91]
15,2640,DLHPPPRPPSPTEI [O43154 1259-1273]
16,238,DPSPPRRPQHNSSG [Q96LS7 199-212]
17,240,DKNIPMKPPTPLLN [AAM33634 99-113]
18,65.4,DTALLPRPERRSSL [Q9Y2E3 518-531]
19,83,DLLSPRRPPDDPWA [BAC03422 263-277]
20,57.1,DSPSFSRPSKYSPG [O14905 71-84]
21,8420,DPNAPKRPPLAFFL [P23497 765-778]
